Measured values from the supplement of paper PMC10724198.
± gives the standard deviation of the averaged measurements.

What follows are sequences tested on Saccharomyces cerevisiae (assay: protein stability index of tFT-peptide fusion (C-terminal peptide) (PSI (0-1 scale)); higher = more stable (slower turnover)). Settings: genetic background: wild type; temperature: 30 C.
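Also: PSI is a weighted mean of sequencing reads over stability bins, variants kept only with over 10 reads, mCherry proximal and sfGFP distal, peptide attached via GGGS linker.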

| Sequence | protein stability index |
| --- | --- |
| RGLGGGAECGRW | 0.785 ± 0.12 |
| FSVFFSPQRGCM | 0.759 ± 0.1 |
| WTSPRISPRSPL | 0.726 ± 0.014 |
| VLLMRSARTAGA | 0.69 ± 0.021 |
| GFVPWVCGVRMS | 0.689 ± 0.051 |
| TSPPHLPASSHS | 0.689 ± 0.014 |
| FPLPPFPLTPPP | 0.64 ± 0.054 |
| PHPRPPLPLSLP | 0.697 ± 0.013 |
| ALCGWYMGLFHL | 0.646 ± 0.0042 |
| RLPRRSVGRSTG | 0.673 ± 0.078 |
| VFSAVIFFDCVQ | 0.629 ± 0.014 |
| KGENKRRVRKKN | 0.574 ± 0.014 |
| NKEIKKIRIKKE | 0.664 ± 0.076 |
| ALFEDWRIGVFS | 0.71 ± 0.036 |
| RQGMGPKLVKHQ | 0.633 ± 0.1 |
| VASGTLGWWVSA | 0.712 ± 0.018 |
| FPRGPLPPAPSP | 0.6556 ± 0.006 |
| GPSLLAAQAHTN | 0.704 ± 0.038 |
| PPHPRTPPATPP | 0.601 ± 0.12 |
| SCLWRGHDTVWL | 0.662 ± 0.098 |
| YADAGRVSLWIA | 0.5512 ± 0.0054 |
| KQKNSNKKTQRI | 0.712 ± 0.021 |
| ISVDNTKFLFRS | 0.687 ± 0.023 |
| KGRLVGWDRNRI | 0.75 ± 0.07 |
| LSVSLCWRHFFS | 0.693 ± 0.012 |
| CVGGFLEGIRLG | 0.711 ± 0.041 |

| Sequence | protein stability index |
| --- | --- |
| TQLNTLSTINRT | 0.71 ± 0.11 |
| DKIYNRNSKRRI | 0.6418 ± 0.0055 |
| LFSDLCRVAWSL | 0.615 ± 0.021 |
| GHRMMWLFGVPA | 0.59 ± 0.035 |
| PPTSPPLAPPPL | 0.643 ± 0.062 |
| RSAMRLFEPFSP | 0.745 ± 0.19 |
| RRREGTVPWYIS | 0.605 ± 0.057 |
| FVFGECRGWALV | 0.76 ± 0.046 |
| LSPPPRPPLAPP | 0.65 ± 0.039 |
| QRSEHGAHPTEP | 0.701 ± 0.035 |
| SENVSATLNNQD | 0.708 ± 0.028 |
| GNIKPNEDRGGP | 0.793 ± 0.027 |
| PHLHTPDDARPL | 0.698 ± 0.092 |
| YTSHRGKVYMSV | 0.632 ± 0.019 |
| ARNKKKDLREIK | 0.761 ± 0.054 |
| VLLGTVRCCFLG | 0.556 ± 0.022 |
| SCSFLISLLLLP | 0.525 ± 0.023 |
| SPLRSCPADPSQ | 0.763 ± 0.082 |
| PPPRFRLSSFPT | 0.701 ± 0.021 |
| TTPKLQPAPAVP | 0.691 ± 0.059 |
| KKIRSMRREGQR | 0.714 ± 0.08 |
| PAPGLTPAGRAP | 0.777 ± 0.14 |
| VFPPPLPVRRCP | 0.6551 ± 0.0031 |
| YHNFLPRPPRKR | 0.662 ± 0.077 |
| KHIIPSAYTPEG | 0.661 ± 0.023 |
| PRAHIDWALTVM | 0.548 ± 0.065 |

| Sequence | protein stability index |
| --- | --- |
| ARLAYESSPLPR | 0.7185 ± 0.0056 |
| LLVMRGMRGCGT | 0.681 ± 0.056 |
| GGGVDSGWGKGE | 0.688 ± 0.024 |
| SRGARRRGGAGR | 0.656 ± 0.056 |
| WGGGGGWSGACL | 0.6909 ± 0.0059 |
| QGTNKRRNKNWE | 0.704 ± 0.03 |
| GGGVGVPDSASE | 0.681 ± 0.047 |
| FCGLVIRFSEKV | 0.653 ± 0.017 |
| KKKKKKKKRNRK | 0.666 ± 0.018 |
| HTLQDERNRRRD | 0.696 ± 0.072 |
| PSLSPAPLPGLP | 0.706 ± 0.042 |
| KRKEDSILVISC | 0.662 ± 0.029 |
| LPRPPPPPPPPP | 0.759 ± 0.042 |
| HLPSSRHNPLQN | 0.695 ± 0.037 |
| KRKKTRNKNGKG | 0.627 ± 0.073 |
| GGRGPRGAANRG | 0.634 ± 0.066 |
| SKIQDHLNTAPE | 0.654 ± 0.058 |
| VQSVDVLLISSL | 0.642 ± 0.032 |
| GKCKRYENISKR | 0.629 ± 0.0095 |
| SMLVPLPPFSSA | 0.694 ± 0.0097 |
| FCRCNYLYRIPK | 0.6615 ± 0.0026 |
| GRGLFRVVGLWV | 0.614 ± 0.043 |
| GEYLWVHRIISE | 0.679 ± 0.086 |
| DVLSSVRGLTLL | 0.678 ± 0.0082 |
| GVGVHAASGGEN | 0.723 ± 0.009 |
| VDCGPLSIEGGR | 0.649 ± 0.018 |

| Sequence | protein stability index |
| --- | --- |
| RLKTNKVIIKIK | 0.6665 ± 0.0032 |
| VLDFRGELGLLG | 0.699 ± 0.025 |
| PPRPPAALPRLL | 0.714 ± 0.07 |
| NNSLPTDVDKYL | 0.683 ± 0.019 |
| PPPSPPLPPHSP | 0.7619 ± 0.0011 |
| CIFTVINNTPYC | 0.801 ± 0.12 |
| VGGGGGVSLGGR | 0.655 ± 0.087 |
| PISPLPPPRFLP | 0.677 ± 0.04 |
| RVSLREVKAEKN | 0.682 ± 0.057 |
| VAQKARSVRFSI | 0.722 ± 0.1 |
| GVCCLWVGFQGG | 0.704 ± 0.017 |
| PGAFDLPHSQAV | 0.552 ± 0.059 |
| SYLVLLHDRGMK | 0.665 ± 0.011 |
| AQTHGGSSLPRP | 0.688 ± 0.028 |
| DRLGQYSLIQRG | 0.687 ± 0.022 |
| AKLQQEIVWALD | 0.779 ± 0.048 |
| LLRLPPPSPRYH | 0.782 ± 0.019 |
| SSTPGWVSCDKI | 0.735 ± 0.029 |
| QQRKGTKDNGRE | 0.707 ± 0.095 |
| RPRPKRCGPRSV | 0.672 ± 0.052 |
| TGKTHSGNKYER | 0.684 ± 0.059 |
| LPDVFLSSFFCL | 0.709 ± 0.027 |
| MVVGWGGVEPVG | 0.758 ± 0.048 |
| KLNVRATPPPTI | 0.7 ± 0.055 |
| WDHGDHTAMVSI | 0.683 ± 0.019 |
| SLLPSSFRAPAP | 0.652 ± 0.045 |

| Sequence | protein stability index |
| --- | --- |
| LLVLGHVCAANF | 0.601 ± 0.0094 |
| PPPLPPAPPPFP | 0.698 ± 0.017 |
| GNELLINRVKPR | 0.698 ± 0.0085 |
| LGVFNRMKHSKH | 0.6702 ± 0.0029 |
| TSRGGFCLGGVF | 0.729 ± 0.018 |
| TNILMHGHKRSC | 0.676 ± 0.13 |
| VFLSLLYWSPIG | 0.643 ± 0.038 |
| LSGVYPQACSRL | 0.734 ± 0.014 |
| PLAPLPMSPHLA | 0.572 ± 0.016 |
| GEQEKRFFLSPL | 0.717 ± 0.021 |
| TGAPSKQYDRFL | 0.747 ± 0.045 |
| LPPLLPPFHPPR | 0.701 ± 0.06 |
| PAPPPVRPRSLP | 0.627 ± 0.021 |
| LRYENSQRKELR | 0.653 ± 0.055 |
| PLPSPPVPPPPP | 0.6796 ± 0.0043 |
| ALHPPSPPPPAP | 0.7313 ± 0.0027 |
| PPPPPLLPSPSP | 0.696 ± 0.05 |
| RGRFGYTSSTLA | 0.686 ± 0.041 |
| KKNKRKLKKKKK | 0.72 ± 0.087 |
| LFSSFFSAAFAS | 0.677 ± 0.064 |
| GNSNDPALQPKQ | 0.68 ± 0.044 |
| PPWPLVVQPSPP | 0.703 ± 0.041 |
| PPPSSELTFLHY | 0.797 ± 0.067 |
| WGGGGVRGGMGG | 0.781 ± 0.043 |
| KGIDTYVLQRNE | 0.715 ± 0.0095 |
| FSSFCFFLPPLN | 0.666 ± 0.034 |

| Sequence | protein stability index |
| --- | --- |
| FCFRFISCPLHF | 0.549 ± 0.047 |
| PPAALPRSTPPP | 0.704 ± 0.063 |
| PWVNLFPCQINI | 0.639 ± 0.02 |
| LPPRIPRPDVSF | 0.72 ± 0.0075 |
| LRMHFPPHPSSL | 0.691 ± 0.067 |
| PFPPPPPPPMPT | 0.691 ± 0.05 |
| DRSQKINKKKKK | 0.75 ± 0.017 |
| CPRPPPPTACPV | 0.641 ± 0.1 |
| WMTFKKLQCNRT | 0.682 ± 0.027 |
| KIGNQLQELRRI | 0.696 ± 0.017 |
| PAPPPLPSAAPP | 0.706 ± 0.14 |
| QKKELKTKKKER | 0.663 ± 0.016 |
| INGICDPQANSR | 0.71 ± 0.027 |
| GVCWGNFGWRAV | 0.6839 ± 0.005 |
| PLPFPPPLPPPT | 0.681 ± 0.043 |
| TFRKMEKKKDGG | 0.652 ± 0.018 |
| RRPPPPRGPSPP | 0.713 ± 0.02 |
| IRFCILRRLGRH | 0.588 ± 0.028 |
| QTKSPAKREKTC | 0.665 ± 0.058 |
| PLPRPLPPRVPF | 0.712 ± 0.013 |
| PHPPPPSPPLPT | 0.709 ± 0.041 |
| ALSLPPRLRTFY | 0.663 ± 0.05 |
| RNTKGRIKKKKE | 0.728 ± 0.039 |
| SVPPPPLARALL | 0.759 ± 0.057 |
| PPDPRLPRHDRP | 0.755 ± 0.018 |
| GVFCWVGLSAFL | 0.5866 ± 0.004 |

| Sequence | protein stability index |
| --- | --- |
| CLVLDILSETWL | 0.71 ± 0.036 |
| LLPVFFPCFPLP | 0.696 ± 0.069 |
| SMRLELAALLVI | 0.546 ± 0.033 |
| WGVSVVEGGRSG | 0.736 ± 0.093 |
| SVLVQLLATTKS | 0.675 ± 0.028 |
| HSPPPSLGPVPA | 0.6636 ± 0.0049 |
| PPRTHRPPTPPQ | 0.7212 ± 0.0063 |
| YDIAVDAEIDPY | 0.685 ± 0.0081 |
| SLGFMALFYLPL | 0.649 ± 0.016 |
| GQWCGRLLRSGS | 0.6845 ± 0.0059 |
| CAGPLLIPPLSL | 0.6895 ± 0.0042 |
| GGGCGGGQAGCQ | 0.691 ± 0.043 |
| TPSLPAPGPPSP | 0.735 ± 0.11 |
| QHHRTSIPSSPV | 0.671 ± 0.025 |
| PLPPCCLPPSAF | 0.6857 ± 0.0061 |
| FVGPAWLGVRSC | 0.659 ± 0.012 |
| VSWLSTKCWTIL | 0.563 ± 0.038 |
| SGLSPPSRVCGY | 0.651 ± 0.068 |
| KQKTSRGTGQSL | 0.683 ± 0.1 |
| ERTKKKRRKEKH | 0.663 ± 0.011 |
| VRRTRGGLRGWS | 0.6987 ± 0.0053 |
| EKSEKSRGNRYV | 0.72 ± 0.076 |
| GLFVDIRLHRRT | 0.71 ± 0.017 |
| FHSSDLCGPVTS | 0.67 ± 0.025 |
| PLLLSPPPLYTF | 0.632 ± 0.028 |
| QDFDHPNSIRLP | 0.671 ± 0.027 |

| Sequence | protein stability index |
| --- | --- |
| TVRFTHQRNTVK | 0.689 ± 0.037 |
| RHMLSDFIDACS | 0.72 ± 0.12 |
| TSLALAFTFAIP | 0.703 ± 0.051 |
| SVPLTLLPPLFP | 0.694 ± 0.016 |
| RGRRRGGQQIAE | 0.666 ± 0.007 |
| ARFSPTLQLTPT | 0.844 ± 0.13 |
| SDDTIQNQICPG | 0.66 ± 0.059 |
| TYSCLKIVIPRT | 0.664 ± 0.018 |
| SFPPPHPPPPLP | 0.6998 ± 0.0045 |
| AFLMPFPSRLCV | 0.5806 ± 0.0052 |
| SLRLMTFPPLLL | 0.68 ± 0.08 |
| HYSLSHLRIVLD | 0.645 ± 0.011 |
| RGGGGVLEVLLG | 0.5347 ± 0.0046 |
| SGGRVSGLVGEE | 0.673 ± 0.031 |
| FCFHPLTGKLSG | 0.6536 ± 0.0029 |
| KRKKKENNKIKI | 0.756 ± 0.1 |
| ARVPPFPCHPTL | 0.686 ± 0.03 |
| PFPPSLPSLPLL | 0.698 ± 0.017 |
| PPSPLPQPRPQT | 0.695 ± 0.014 |
| CDRAYSPLSRHN | 0.6848 ± 0.0063 |
